The source of these data is patent publication US8053415B2, “Compounds having RD targeting motifs” (Washington University in St. Louis, priority 2005, dated 2011).

Usually pIC50 stands for the negative decadic logarithm of the IC50, by convention in mol/L. Read a low pIC50 as a high IC50.

In one data set the test system is A549 cells. Briefly: MTT cytotoxicity assay. In kind it is cell-based, human. To be noted: up to 100 μM solution in 20% aqueous DMSO, 24 h. The method, then: Cytotoxicity assays were performed using the 3-(4,5-dimethylthiazol-2-yl)-2,5-diphenyltetrazolium bromide (MTT) based in vitro toxicology assay kit (Sigma-Aldrich, St. Louis, Mo.) per the manufacturer's protocol. Briefly, A549 cells were grown in 96 well plates to 75% confluence in phenol red free Dulbecco's Modified Eagle's Medium supplemented with 10% fetal calf serum, 100 units/mL penicillin and 100 units/mL streptomycin. A concentration range (0-125 μM) of the compound to be tested was added to each well in a final volume of 100 μL/well and the cells were incubated for 24 h at 37° C. in 5% CO2. After incubation, the medium was removed and replaced with 100 μL/well phenol red free medium. Absorbances at 570 nm and 690 nm were measured. MTT (10 μL) was added to each well and the cells were incubated for 2 h. […] Absorbance at 570 nm and 690 nm were measured. The Δ570 and Δ690 were determined by taking the difference of the absorbances before and after the addition of MTT. The percent of viable cells, B, was determined according to the formula:
[formula] where λΔ570 was the absorbance of formazan crystals at 570 nm and λΔ690 was background at 690 nm.
The conventional MTT protocol typically involves background subtraction at 690 nm from the absorbance at 570 nm. […] To circumvent this problem, the background absorbance at 690 nm was adjusted by running parallel experiments with and without MTT. […]
(Tetrazolium assays rely on reduction of a dye to a coloured formazan, in cell work by metabolically active cells.)

A further data set concerns β3 knockout VSMC cells. Kind of data set: Internalization in integrin β3 knock-out vascular smooth muscle cells. In kind it is cell-based, mice. To be noted: 1 μM, 1 hr, 37° C. The method, then: Having shown that cypate-GRD preferentially binds to β3 integrin in ABI-positive cells, it was hypothesized that it would not internalize in β3 knockout cells. Vascular smooth muscle cells (VSMCs) from the aortas of β3^−/−apoE^−/− and β3^+/+apoE^−/− mice were provided by Dr. Clay F. Semenkovich (Washington University Medical School in St. Louis, Mo.). VSMCs were maintained at 37° C. in humidified atmosphere containing 5% CO2 in Dulbecco's modified Eagle's medium (DMEM) containing 10% fetal bovine serum, 4 mmol/L L-glutamine, 1 mM sodium pyruvate, 100 U/ml penicillin, 0.25 μg/ml amphotericin, 100 μg/ml streptomycin. The internalization of cypate-GRD and cyclic cypate-RGD were compared in β3 knockout and wild-type VSMC cells, essentially as described above.

For data set [1], the system named is A549 cell membranes (ABI). Briefly: ABI binding assay using A549 cell membranes. Details: species or system human. To be noted: compared with purified ABI. From the text:
[SEQ ID NO:1] as the target receptor, tracer, and reference standard, respectively. Echistatin is a polypeptide that binds purified ABI specifically and irreversibly and the radiolabeled analogue is used widely in ABI binding assays. […] Because of the rearrangement of the RGD peptide sequence, the low binding of cypate-GRD peptide to ABI was expected.

A short description of data set [2]: Absorption and emission spectral properties in 20% aqueous DMSO. In kind it is physicochemical. The method, then:
The spectral properties of cypate and the cypate-peptide conjugates were determined in 20% aqueous DMSO, which solubilizes all the compounds. […] Absorbance measurements were performed with a Beckman Coulter DU 640 spectrophotometer. The fluorescence spectra were recorded on Fluorolog-3 fluorometer (HORIBA Jobin Yvon Inc., Edison, N.J.). To prepare the stock solutions, a high precision analytical balance was used to weigh >2 mg of each compound, which was dissolved in DMSO. The DMSO solutions were then diluted with water to obtain a final solution of 20% aqueous DMSO. An aliquot (known volume) of the solution was transferred to a cuvette with 1 μL precision micropipettes and diluted with 20% aqueous DMSO solvent mixture to give a working solution that absorbs at <1.0 absorbance unit. Aliquots of the working solution were diluted with 20% aqueous DMSO and used to determine the molar absorptivity of each compound. For fluorescence measurements, probe solutions with 0.1 absorbance units were used to minimize inner filter effects.
Previous studies have shown that this solvent mixture boosts fluorescence intensity and is well tolerated by rodents. Additionally, the dyes and their peptide conjugates are soluble in this solvent mixture, providing a common medium for spectral measurements.
Absorbance spectra were measured on a Beckman Coulter DU 640 UV-Visible spectrophotometer. Fluorescence spectra were recorded on a HORIBA Jobin Yvon Fluorolog-3 fluorometer. Stock solutions (1.0 mM) of the conjugates were prepared by dissolving each sample in 80% aqueous DMSO. UV-Vis and fluorescence measurements were carried out by adding 5.0 μL of the stock solutions via a micropipette into 3 mL of 20% aqueous DMSO in a quartz cuvette.

For data set [3], the system named is αv, β3, αvβ3 and αIIBβ3 integrins in A549 cells. Briefly: Immunostaining of integrins in treated and untreated cells. It counts as cell-based, human. To be noted: relative to PBS-treated cells. Here is the method:
To confirm the receptors that mediate internalization of cypate-GRD in A549 cells, the levels of αv, αIIb, β3, αvβ3, and αIIBβ3 in treated and untreated cells were assessed by immunostaining. Cells were grown on Lab-Tek slides and fixed in 3% paraformaldehyde in PBS for 30 min. After washing three times for 5 min each in PBS, the cells were blocked to mask nonspecific binding sites with PBS containing 1% normal goat serum (blocking solution) for 1 h. Primary antibodies of mouse anti-human αv or β3 integrin antibodies (Chemicon International, Temecula, Calif.) or antihuman αIIBβ3 (GeneTex, Inc., South Bend, Ind.) diluted 1:500 (v/v) in blocking solution were added to each well and incubated overnight at 4° C. After washing three times for 10 min each in PBS, cells were incubated for 1 h with diluted biotinylated-anti-mouse IgG antibody in blocking solution. After washing, antigens were detected with avidin-horseradish peroxidase conjugate and diamino benzidine (Vector Laboratories, Burlingame, Calif.). Slides were counterstained with Mayers Hematoxylin, and the cover slips were mounted for microscopic examination.

For data set [4], the target named is integrin αvβ3 protein (purified ABI) (Homo sapiens, UniProt P05106+P06756). Kind of data set: Receptor binding assay with 125I-echistatin (Example 3). The following applies: Table 4, 125I-echistatin tracer.
Protocol: A 96-well filtration plate was blocked with 0.1% polyethylenimine blocking solution by incubation overnight at 4° C. ^125I-Echistatin (50 nmol/L) was added to the binding buffer (50 mM Tris-HCl, pH 7.4, 100 mM NaCl, 2 mM CaCl2, 1 mM MgCl2, 1 mM MnCl2, 0.1% BSA) with integrin αvβ3 protein (50 ng/well in 96-well filtration plate) and ligands. The concentration range of ligand was between 0.01 and 100 μM. The mixture was incubated for 2 h by shaking at room temperature. Each well was washed three times with 0.25 mL of ice-cold binding buffer and dried. The filters were removed using a punch apparatus and counted in a gamma counter.

The structures appear in SMILES notation. pIC50: −log10 of the molar value. Entries after “also recorded” stand apart in the source; their conditions may differ. Where a SMILES comes first, the peptide text is derived from it.

Chain of integrin αvβ3 protein (purified ABI) (P06756 31-889 limits assumed): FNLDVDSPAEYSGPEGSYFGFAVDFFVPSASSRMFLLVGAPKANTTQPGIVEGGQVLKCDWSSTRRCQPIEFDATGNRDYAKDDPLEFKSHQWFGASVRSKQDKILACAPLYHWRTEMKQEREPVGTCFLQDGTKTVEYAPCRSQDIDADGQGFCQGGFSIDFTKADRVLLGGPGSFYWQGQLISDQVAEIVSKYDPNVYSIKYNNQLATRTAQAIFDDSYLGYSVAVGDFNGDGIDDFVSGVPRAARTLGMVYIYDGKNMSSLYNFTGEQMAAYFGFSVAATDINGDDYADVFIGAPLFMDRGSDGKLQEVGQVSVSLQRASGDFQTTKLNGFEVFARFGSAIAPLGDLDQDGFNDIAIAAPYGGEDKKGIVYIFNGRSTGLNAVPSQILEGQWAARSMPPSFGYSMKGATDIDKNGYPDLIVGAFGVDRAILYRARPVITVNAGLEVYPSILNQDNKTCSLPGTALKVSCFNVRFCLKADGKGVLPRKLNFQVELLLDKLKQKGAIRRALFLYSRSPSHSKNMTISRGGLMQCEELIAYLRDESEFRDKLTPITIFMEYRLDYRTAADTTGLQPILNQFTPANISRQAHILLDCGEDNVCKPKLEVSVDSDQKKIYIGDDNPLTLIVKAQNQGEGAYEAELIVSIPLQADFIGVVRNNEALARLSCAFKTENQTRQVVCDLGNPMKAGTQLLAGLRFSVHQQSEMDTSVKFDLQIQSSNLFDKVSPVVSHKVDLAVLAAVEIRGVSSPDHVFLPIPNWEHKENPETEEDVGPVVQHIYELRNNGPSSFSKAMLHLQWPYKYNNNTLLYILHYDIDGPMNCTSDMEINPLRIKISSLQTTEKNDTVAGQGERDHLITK
Chain of integrin αvβ3 protein (purified ABI) (P06756 891-1048 partner limits assumed): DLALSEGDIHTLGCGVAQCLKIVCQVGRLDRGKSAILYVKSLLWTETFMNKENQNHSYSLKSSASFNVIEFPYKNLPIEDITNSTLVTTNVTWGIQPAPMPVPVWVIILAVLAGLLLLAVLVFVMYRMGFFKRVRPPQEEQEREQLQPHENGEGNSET
Chain of integrin αvβ3 protein (purified ABI) (P05106 27-788): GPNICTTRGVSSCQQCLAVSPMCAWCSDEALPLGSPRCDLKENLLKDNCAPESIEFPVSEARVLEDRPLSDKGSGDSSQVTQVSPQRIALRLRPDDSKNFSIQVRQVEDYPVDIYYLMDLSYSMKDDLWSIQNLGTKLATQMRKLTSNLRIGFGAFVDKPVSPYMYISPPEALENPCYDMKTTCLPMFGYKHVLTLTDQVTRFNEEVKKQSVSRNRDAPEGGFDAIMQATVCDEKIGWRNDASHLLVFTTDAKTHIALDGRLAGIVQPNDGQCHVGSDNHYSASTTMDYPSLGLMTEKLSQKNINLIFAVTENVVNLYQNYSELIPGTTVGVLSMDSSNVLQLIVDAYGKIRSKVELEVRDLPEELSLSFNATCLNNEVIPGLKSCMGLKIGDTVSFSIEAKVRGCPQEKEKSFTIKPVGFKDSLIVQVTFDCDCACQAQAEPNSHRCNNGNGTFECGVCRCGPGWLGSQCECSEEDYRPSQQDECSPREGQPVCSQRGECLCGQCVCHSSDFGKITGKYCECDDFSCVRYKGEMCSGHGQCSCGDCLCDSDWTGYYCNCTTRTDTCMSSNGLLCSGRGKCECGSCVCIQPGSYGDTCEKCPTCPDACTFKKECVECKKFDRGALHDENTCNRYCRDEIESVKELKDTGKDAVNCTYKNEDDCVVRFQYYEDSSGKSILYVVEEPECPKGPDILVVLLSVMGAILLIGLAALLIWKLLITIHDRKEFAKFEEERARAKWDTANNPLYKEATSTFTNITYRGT

Regarding `CC1(C)C(/C=C/C=C/C=C/C=C2/N(CCC(=O)NCC(=O)N[C@@H](CCCNC(=N)N)C(=O)N[C@@H](CC(=O)O)C(=O)N[C@@H](CO)C(=O)N3CCC[C@H]3C(=O)N[C@@H](CCCCN)C(=O)O)c3ccc4ccccc4c3C2(C)C)=[N+](CCC(=O)O)c2ccc3ccccc3c21` [Cyp-GRD, Cypate-GRDSPK] (HELM PEPTIDE1{[CC1(C)C(/C=C/C=C/C=C/C=C2/N(CCC(=O)[*:2])c3ccc4ccccc4c3C2(C)C)=[N+](CCC(=O)O)c2ccc3ccccc3c21].G.R.D.S.P.K}$$$$V2.0), the “cell proliferation or cytotoxicity (percent of viable cells, MTT)” value with A549 cells was “did not induce cell proliferation or cytotoxicity; also recorded: not cytotoxic”. In the data set with β3 knockout VSMC cells, the “internalization in β3 knockout cells” value is “not observed”. The “ABI binding affinity using A549 cell membranes” value in data set [1] was “No improvement in the ABI binding affinity”. For the same compound, in data set [2], the “^abεmax” value was 237,680 cm^−1Mol^−1, the “^abλmax” value amounted to 789 nm and the “^emλmax” value is recorded as 813 nm. Besides, in data set [3], the “staining of A549 cells with anti-αv, anti-β3, anti-αvβ3 and anti-αIIBβ3 antibodies after preincubation” value is reported as “reduced staining”. In data set [4], this compound showed a pIC50 of less than 4.00.
